Data published in article doi:10.1101/2021.11.27.470173.
Where two headings read alike, the source gives them in different places.

Key:
Experiment in all cases: SEC-MALS
[1] = molecular target: cyanide dihydratase CynD from Bacillus safensis PER-URP-08 (Bacillus safensis PER-URP-08) (UniProt P0DXY3)
[2] = molecular target: cyanide dihydratase CynD from Bacillus safensis PER-URP-08 (Bacillus safensis PER-URP-08) (UniProt P0DXY3); remark: listed apart in the source
[3] = molecular target: cyanide dihydratase CynD from Bacillus safensis PER-URP-08 (Bacillus safensis PER-URP-08) (UniProt P0DXY3); remark: listed apart in the source

cyanide dihydratase CynD from Bacillus safensis PER-URP-08 (from UniProt P0DXY3 1-330) (enzyme)
stoichiometry N [1]: 24 to 48 mer
stoichiometry N [2]: 3 to 5 mer
stoichiometry N [3]: 4 to 6 mer
